How the values were obtained:
[1] = target: the molecule itself; assay: SEC; fluorescence-detection SEC (FSEC) of detergent-solubilised Expi293F cells (1% LMNG, 0.1% CHS; also DDM or GDN), Superose 6 increase 5/150 in TBS (20 mM Tris pH 8.0, 150 mM NaCl) with 10 uM LMNG, GFP fluorescence detected
[2] = target: the molecule itself; assay: cryo-EM structure; purified AtOSCA1.1 reconstituted in MSPE3D1 lecithin nanodiscs, TBS
[3] = target: the molecule itself; assay: cryo-EM structure; purified AtOSCA3.1 in a detergent environment; two conformations (contracted, extended) in one data set

B1: AtOSCA1.1-CGFP (natural protein, Arabidopsis thaliana)
chain: MATLKDIGVSAGINILTAFIFFIIFAFLRLQPFNDRVYFSKWYLRGLRSSPASGGGFAGRFVNLELRSYLKFLHWMPEALKMPERELIDHAGLDSVVYLRIYWLGLKIFAPIAMLAWAVLVPVNWTNNELELAKHFKNVTSSDIDKLTISNIPEGSNRFWAHIIMAYAFTIWTCYMLMKEYETVANMRLQFLASEGRRPDQFTVLVRNVPPDPDETVSELVEHFFLVNHPDNYLTHQVVCNANKLADLVSKKTKLQNWLDYYQLKYTRNNSQIRPITKLGCLGLCGQKVDAIEHYIAEVDKTSKEIAEERENVVNDQKSVMPASFVSFKTRWAAAVCAQTTQTRNPTEWLTEWAAEPRDIYWPNLAIPYVSLTVRRLVMNVAFFFLTFFFIIPIAFVQSLATIEGIEKVAPFLKVIIEKDFIKSLIQGLLAGIALKLFLIFLPAILMTMSKFEGFTSVSFLERRSASRYYIFNLVNVFLGSVIAGAAFEQLNSFLNQSPNQIPKTIGMAIPMKATFFITYIMVDGWAGVAGEILMLKPLIIYHLKNAFLVKTEKDREEAMNPGSIGFNTGEPQIQLYFLLGLVYAPVTPMLLPFILVFFALAYVVYRHQIINVYNQEYESAAAFWPDVHGRVITALIISQLLLMGLLGTKHAASAAPFLIALPVITIGFHRFCKGRFEPAFVRYPLQEAMMKDTLERAREPNLNLKGYLQDAYIHPVFKGGDNDDDGDMIGKLENEVIIVPTKRQSRRNTPAPSRISGESSPSLAVINGKEV
notes: AtOSCA1.1 from Arabidopsis thaliana, UniprotKB Q9XEA1; cDNA cloned into a C-terminally GFP-tagged BacMam vector; His8 and FLAG lie after GFP in the vector; also called Arabidopsis thaliana OSCA1.1; source: Expi293F, transfected, solubilised in LMNG-CHS, in cleared lysate; not shown: GFP, C-terminal, kept
[1]
  stoichiometry N: 2

B2: AtOSCA1.1 in lipid nanodisc (natural protein, Arabidopsis thaliana)
chain: B1 chain
notes: AtOSCA1.1 from Arabidopsis thaliana, UniprotKB Q9XEA1; GFP removed by HRV3C protease; His8 and FLAG lie after GFP in the vector and were probably removed with it; Embedded in MSPE3D1 lecithin nanodiscs; also called extended state of AtOSCA1.1; not shown: GFP, C-terminal, cleaved
[2]
  stoichiometry N: 2

B3: AtOSCA3.1 (natural protein, Arabidopsis thaliana)
chain: MEFGSFLVSLGTSFVIFVILMLLFTWLSRKSGNAPIYYPNRILKGLEPWEGTSLTRNPFAWMREALTSSEQDVVNLSGVDTAVHFVFLSTVLGIFACSSLLLLPTLLPLAATDNNIKNTKNATDTTSKGTFSQLDNLSMANITKKSSRLWAFLGAVYWISLVTYFFLWKAYKHVSSLRAQALMSADVKPEQFAILVRDMPAPPDGQTQKEFIDSYFREIYPETFYRSLVATENSKVNKIWEKLEGYKKKLARAEAILAATNNRPTNKTGFCGLVGKQVDSIEYYTELINESVAKLETEQKAVLAEKQQTAAVVFFTTRVAAASAAQSLHCQMVDKWTVTEAPEPRQLLWQNLNIKLFSRIIRQYFIYFFVAVTILFYMIPIAFVSAITTLKNLQRIIPFIKPVVEITAIRTVLESFLPQIALIVFLAMLPKLLLFLSKAEGIPSQSHAIRAASGKYFYFSVFNVFIGVTLAGTLFNTVKDIAKNPKLDMIINLLATSLPKSATFFLTYVALKFFIGYGLELSRIIPLIIFHLKKKYLCKTEAEVKEAWYPGDLSYATRVPGDMLILTITFCYSVIAPLILIFGITYFGLGWLVLRNQALKVYVPSYESYGRMWPHIHQRILAALFLFQVVMFGYLGAKTFFYTALVIPLIITSLIFGYVCRQKFYGGFEHTALEVACRELKQSPDLEEIFRAYIPHSLSSHKPEEHEFKGAMSRYQDFNAIAGV
notes: AtOSCA3.1 from Arabidopsis thaliana, UniprotKB Q9C8G5; also called contracted state of AtOSCA3.1; extended state of AtOSCA3.1; source: Expi293F infected by baculovirus, purified (DDM, TALON)
[3]
  stoichiometry N: 2

From PMC10319725, “A mechanical-coupling mechanism in OSCA/TMEM63 channel mechanosensitivity” (Nature Communications, 2023)
